Experimental findings from article PMC2001758 are described below.

This assay has as its target high affinity saturable binding sites for LDL on the human non-small cell lung tumour line L-DAN (LDL-receptors) (human (endogenous in L-DAN)) (UniProt P01130). Kind of assay: radioligand binding; 125I-labelled LDL on cells of the human non-small cell lung tumour line L-DAN; saturable binding.

high affinity saturable binding sites for LDL on the human non-small cell lung tumour line L-DAN (LDL-receptors) (human (endogenous in L-DAN)), sequence (P01130 22-860): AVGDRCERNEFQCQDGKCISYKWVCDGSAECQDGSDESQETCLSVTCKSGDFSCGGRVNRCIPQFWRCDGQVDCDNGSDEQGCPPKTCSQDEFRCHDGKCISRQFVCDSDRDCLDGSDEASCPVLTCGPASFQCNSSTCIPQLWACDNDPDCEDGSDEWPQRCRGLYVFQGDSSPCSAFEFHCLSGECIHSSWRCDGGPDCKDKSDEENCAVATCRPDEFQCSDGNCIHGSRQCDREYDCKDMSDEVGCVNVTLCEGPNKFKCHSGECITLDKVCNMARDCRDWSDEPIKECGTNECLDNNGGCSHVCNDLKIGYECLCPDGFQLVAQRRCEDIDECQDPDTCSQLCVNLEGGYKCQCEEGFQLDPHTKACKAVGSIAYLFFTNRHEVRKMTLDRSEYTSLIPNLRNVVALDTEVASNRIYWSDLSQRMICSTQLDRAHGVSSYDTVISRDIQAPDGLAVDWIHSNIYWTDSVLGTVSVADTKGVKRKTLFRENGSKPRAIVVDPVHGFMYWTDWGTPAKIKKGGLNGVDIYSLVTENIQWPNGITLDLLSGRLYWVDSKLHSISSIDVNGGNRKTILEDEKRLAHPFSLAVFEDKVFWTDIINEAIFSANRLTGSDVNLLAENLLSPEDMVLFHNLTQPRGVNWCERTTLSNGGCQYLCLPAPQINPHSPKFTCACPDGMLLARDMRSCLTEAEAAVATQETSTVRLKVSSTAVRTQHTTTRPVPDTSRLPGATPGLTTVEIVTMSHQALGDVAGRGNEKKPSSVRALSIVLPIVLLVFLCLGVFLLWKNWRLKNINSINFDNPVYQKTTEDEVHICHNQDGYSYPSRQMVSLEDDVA

As to “low density lipoprotein (LDL) (from UniProt P04114 28-4563)”, the Km (p ml ' (as printed, garbled)) came to 40.
